Biological target: the molecule itself
Experiment: cryo-EM structure

B1: Chikungunya virus non-structural protein 1 (nsP1) (enzyme)
chain: MDPVYVDIDADSAFLKALQRAYPMFEVEPRQVTPNDHANARAFSHLAIKLIEQEIDPDSTILDIGSAPARRMMSDRKYHCVCPMRSAEDPERLANYARKLASAAGKVLDRNISGKIGDLQAVMAVPDTETPTFCLHTDVSCRQRADVAIYQDVYAVHAPTSLYHQAIKGVRLAYWVGFDTTPFMYNAMAGAYPSYSTNWADEQVLKAKNIGLCSTDLTEGRRGKLSIMRGKKLEPCDRVLFSVGSTLYPESRKLLKSWHLPSVFHLKGKLSFTCRCDTVVSCEGYVVKRITMSPGLYGKTTGYAVTHHADGFLMCKTTDTVDGERVSFSVCTYVPATICDQMTGILATEVTPEDAQKLLVGLNQRIVVNGRTQRNTNTMKNYMIPVVAQAFSKWAKECRKDMEDEKLLGVRERTLTCCCLWAFKKQKTHTVYKRPDTQSIQKVQAEFDSFVVPSLWSSGLSIPLRTRIKWLLSKVPKTDLTPYSGDAQEARDAEKEAEEEREAELTLEALPPLQAAQEDVQVEIDVEQLEDRAGA
- stoichiometry N: 12
